The target of this experiment is CD3 ζ SNID2 peptide (22-mer). Description: ITC; MicroCal iTC200; 20 mM HEPES (pH 8.0), 100 mM NaCl, 25 °C; typically Nef at 200 μM injected from the syringe to 20 μM CD3 ζ in the cell. On the technique in general: Isothermal titration calorimetry measures the heat released or taken up as one component is titrated into another.
Chain of CD3 ζ SNID2 peptide (22-mer) (P20963 other isoform, or with tags, fused parts or gaps): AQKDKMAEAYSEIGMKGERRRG

The substance “SIV_(mac239) Nef 66–235 (SIV Nef-B) (from UniProt Q5QGG3 66-235) (domain or fragment)” displayed a Kd of 2600 nM.

Usually Kd stands for the equilibrium constant for the complex coming apart. A lower Kd goes with a tighter complex.

These data come from article PMC5585231.
